Reference: the DeepSol protein solubility set

Assay: soluble on expression in E. coli; label from the status in PepcDB or PDB records

Row | Sequence | soluble on expression in E. coli
1 | MTYNVWNFGESNGRYSALTARGISKETCQKAGYWIAKVDGVMYQVADYRDQNGNIVSQKVRDKDKNFKTTGSHKSDALFGKHLWNGGKKIVVTEGEIDMLTVMELQDCKYPVVSLGHGASAAKKTCAANYEYFDQFEQIILMFDMDEAGRKAVEEAAQVLPAGKVRVAVLPCKDANECHLNGHDREIMEQVWNAGPWIPDGVVSALSLRERIREHLSSEESVGLLFSGCTGINDKTLGARGGEVIMVTSGSGMVMSTFVRQQALQWGTAMGKKVGLAMLEESVEETAEDLIGLHNRVRLRQSDSLKREIIENGKFDQWFDELFGNDTFHLYDSFAEAETDRLLAKLAYMRSGLGCDVIILDHISIVVSASGESDERKMIDNLMTKLKGFAKSTGVVLVVICHLKNPDKGKAHEEGRPVSITDLRGSGALRQLSDTIIALERNQQGDMPNLVLVRILKCRFTGDTGIAGYMEYNKETGWLEPSSYSGEEESHSESTDWSNDTDF | soluble
2 | MNNENKTHIADSVLDVIVVGGGINGAGIAADAAGRGLTVGLYEASDFASATSSASSKLIHGGLRYLEHYEFRLVSEALAEREVLLAKAPHIAKPMRFRLPHRPFLRPAWMIRAGLFLYDNLGKRTTLPASHSVDLAASGLLKSEITKGFEYSDCWVDDARLVILNAMAAEKNGAEVKNYCRVEKAIRVDNIWHVTVFDVQANVRFERKARALVNAAGPWVKQFFDDSLEDESPRNIRLVKGSHIVVPKIHNEEQAYILQNKDNRIVFVIPYMEDFSIIGTTDVEYKGDPRKVEISEEEVNYLIDVVNQHFVDQIKRDDVVWTYSGVRPLCDDESDSPQAITRDYTLELEQELDQAPLLSIFGGKLTTYRKLGETAMKMLNPYFAKMGTPWTRNVALPGGDFDYPRHQLVDNICCKHPWLAKETVTRYVNQFGTLTWTLLEGIECQSDMGELFAQGVYQAEIDYLIKHEFAKNAEDVLWRRTKLGLYLTEEEEKQIALYIESYLSHRHKVKLQNVILEHHHHHH | soluble
3 | MEKTTEGAFYTREYRNLFKEFGYSEAEIQERVKDTWEQLFGDNPETKIYYEVGDDLGYLLDTGNLDVRTAGMSYGMMMAVQMDRKDIFDRIWNWTMKNMYMTEGVHAGYFAWSCQPDGTKNSWGPAPDGEEYFALALFFASHRWGDGDEQPFNYSEQARKLLHTCVHNGEGGPGHPMWNRDNKLIKFIPEVEFSDPSYHLPHFYELFSLWANEEDRVFWKEAAEASREYLKIACHPETGLAPEYAYYDGTPNDEKGYGHFFSDSYRVAANIGLDAEWFGGSEWSAEEINKIQAFFADKEPEDYRRYKIDGEPFEEKSLHPVGLIATNAMGSLASVDGPYAKANVDLFWNTPVRTGNRRYYDNCLYLFAMLALSGNFKIWFPEGQEEEHLEHHHHHH | soluble
4 | MSLAILIVECMQEISSFNPVPSDYELFHIEEGEDLFQHRGRNTAIGGALSVLEATPGVTLIPTVAARADSAGILSAEGWARLSAQILDRVRAGVGGADAIYVSLHGAMGAVGEPDPEGWLLAQIRALAGPDRPIIISLDLHGILTERMIAQVDGIAVYHTYPHVDFADTGARAARLLLDRLTARRPASIVRAVIPALVRGDELITATGCYGDLIRECRRLEADGMVLAAGLMIGNPFTDAPELCSQVVLTTDDPLRGRAEAERLAAAFWALRHRMQGRLIGLSDAVAEARTLTGPVVFTDAADATSSGASGDSNAILRGLLAADYPGRVLAQIVDPQAAEAAHRAGVGAEIPVTLGGRMDPARFTPLEVTARVRLLSDGLTRLETMKTPLNAGRCAVLEFGTVTVVAMSLPAMLFDRAIYYANGLDPADFDLIVVKSPHTEHHMYDAWVTRNFNIDTPGSTSADLASLGHRICARPMFPLDPLTDFTPRATAHLRADRSEGHHHHHH | soluble
5 | MGSDKIHHHHHHMSNQTLKKISELDVFCLMVFKVIFQTGHANIAAKQLNVSAPKISRCLNMLRATFDDELFYRRQLGLKPTPMAEFLYEPVCQFCEAVLKIEQSISEKSSELASERLRVAVTPSIMASLSLAFSRSNARDAFSQLQFVIWGDDSADQIHNGELDMGVTFDACNEHPLSVEALGCLSGVCLAANEEHAIWSQSEPLTLETICRHPFLCLDGKGFNDKIDPLEVFARQNGADIDSIERVSSRDEWYSHLLTMNSVAFLPCSEAEICGALPGIRVVRLSDEEVGRLHGESMSPQYLLLENPAEYRRYSLEQRELIIQLIKQLLVKC | not soluble
6 | MGSDKIHHHHHHMEKKFNLENYLSYGVQNIVKGIIKSTLSNPKESLFMAKYSIASKNAIKLRAEADKIGEHVPPFLIASITSKCNLHCKGCYARHVNSCTDEKTVNQLTDEDWRRVFYEAKDIGVGFILLLGGEPLMRPNVIKIAGEIEDILFPIFTNGTMIDEKYIKLFQKYRNLIPIFSIEGNESNTDKRRGTGIYSEIIKKMNEAYENKIIYGASITVTKENIEEVTSEKFLDKLYSRGCKSVIYVEYVPVSEKEKKIALEGKEREFLKDKLVELRYKYEDILFISFPGDEKSSGGCLAAGRGFFHINFNGGVEPCPFSPYSDTNLKDLSLKEAMNSPLFRKLRKDNVLMEEHSGGCVLFEKEDIVQSLLQK | not soluble
7 | MGSDKIHHHHHHMPLYRHLDLQSRYVTSRPVDVWLPAATGDQPLPVIYMHDGQNLFDPTLRADGEVWAVDQAIERLCATYNWPGAIVVGVWCTDQRWREYAPQKPFAALRQTRGWESIVERMGGEPVSDAYLSFLVEEVRPFVDRHYPTLPDASNTFLMGSSMGGLISLYGVCQYPDLFAGAGCLSTHWPAGGNLLVDELAALLPPAGRHRFYFDYGTVGLDAEYEPFQQRMDRLLEQAGYRHGHDWLTRKFPGAAHNEAAWRARVADVIAFLVLGRVAGE | not soluble
8 | MVKERRTELVEGFRHSVPYINAHRGKTFVIMLGGEAIEHENFSNIVNDIGLLHSLGIRLVVVYGARPQIDANLAEHHHEPVYHKQTRVTDAKTLELVKQAAGMLQLEITARLSMSLNNTPLQGAHINVVSGNFIIAQPLGVDDGVDYCHSGRIRRIDEEAIHRQLDSGAIVLMGPVAVSVTGESFNLTSEEIATQLAIKLKAEKMIGFCSSQGVYNQAGEIVSELFPNEAQARVEELEADEDYNSGTVRFLRGAVKACRSGVRRCHLISYQENGALLQELFSRDGIGTQIVMESAEQIRRATINDIGGILELISPLEQQGILVRRSREQLEMEIDKFTIIQRDNTTIACAALYPFPEEKIGEMACVAVHPDYRSSSRGEVLLERIAAQARQMGLSKLFVLTTRSIHWFQERGFTPVDIDLLPESKKQMYNYQRRSKVLMADLA | not soluble
9 | MGHHHHHHSHMIKRSSECNPLLQEPIASAQFGATAGTECRKSVPCGWERVVKQRLFGKTAGRFDVYFISPQGLKFRSKSSLANYLHKNGETSLKPEDFDFTVLSKRGIKSRYKDCSMAALTSHLQNQSNNSNWNLRTRSKCKKDVFMP | soluble
10 | MSLGDEGWQTVIGLEIHAQIKTGKKLFSKASTSYGHVPNTNVDVHDAAFPGTLPVLDINAIRLSIMTALALNCQINPRSTFDRKHYFYHDIPASYQITQHYNPLAWNGHLEIREGDNGSKRTFNIGIKQLQVEQDTAKSQTVGDAVLVDLNRAGTGLMEIVTDPDMRSPEEAGAFVKKLQGLLRRVGSADGDMEKGNLRVDVNVSVHRPGMPFGTRCEIKNINSVRFLQAAIESERQRHIAHYCTSPLEPLAQETRGFNELTLQTYSLRSKEEATDYRYMPDHNLPAIIIDDGYLDSLWKNLPEMPWQSVERLVKTYGVTKRDAETLLGLDEYSAQGIAYFEEVVEQDKKIAKKATNWIAHELLGQLGKAIRPWTPTIVPAPLMHELVTAVESREITGTTGKAIVKHFVSLPESASLPPSFAELLAELGLTPSAASVEDLTETCKKAMNNQPKAVADFKKGNEKVVMRLVGEVMKLSGGKADAMKAKDILLDLLKDEGHHHHHH | not soluble
11 | GPGSMPHGISYYEFPWPDMTAPQQDIVLRSVQVMDYHIKQKGKVLVHCHAGLGRTGLMIACYYVYSQHIPSDEAIALVRKMRPGAIQTTRQAQFIADFEKHLWRLSQAFRVEISDALIDLNLFIQRQRLVLHGEQADLYKSVPLFLHTILCRLLNLTKDNPEAARLALQSLGPSAAPTDTTLSACRIAINRRRFRVQSVRDVSILSFLVCDWFRSTSSPALTEENCDQIVESMRASISKQEGLPLEIRRILSKPARHTLGMVISAFFIISRQVGCVSLTNFAFRCVVDSFNHAFNPIKVRHSPLERELIHKFFLEWGESVGDLYFNYDTVPAAHRTIKRIALASSIVLEATKNTDPPRRSSPSVRTLSVPSSTPEMSSNPAKQTGAPDSALVFSTQSRASHLFDMPLAVETDSESKTRLWRQHLIEYRRDTDGRRGRGERQRPPASSADAKVKR | not soluble
12 | MTAEHSWRLCLMALAFEDQLAGLDLGKVLRMCVVHDLGEAIHGDIPAVEQAAHPDKGEQERADLLQLTRHLDAPLRDRLLALWDEYERGESAEALAVKALDKLETL | soluble
13 | VEGRFQLVAPYEPQGDQPQAIAKLVDGLRRGVKHQTLLGATGTGKTFTISNVIAQVNKPTLVIAHNKTLAGQLYSELKEFFPHNAVEYFVSYYDYYQPEAYVPQTDTYIEKDAKINDEIDKLRHSATSALFERRDVIIVASVSCIYGLGSPEEYRELVVSLRVGMEIERNALLRRLVDIQYDRNDIDFRGTFRVRGDVVEIFPASRDEHCIRVEFFGDEIERIRAEVDALTGKVLGEREHVAIFPASHFVTREEKMRLAIQNIEQELEERLAELRAQGKLLEAQRLEQRTRYDLEMMREMGFCSGIENYSRHLALRPPGSTPYTLLDYFPDDFLIIVDESHVTLPQLRGMYNGDRARKQVLVDHGFRLPSALDNRPLTFEEFEQKINQIIYVSATPGPYELEHSPGVVEQIIRPTGLLDPTIDVRPTKGQIDDLIGEIRERVERNERTLVTTLTKKMAEDLTDYLKEAGIKVAYLHSEIKTLERIEIIRDLRLGKYDVLVGINLLREGLDIPEVSLVAILDADKEGFLRSERSLIQTIGRAARNANGHVIMYADTITKSMEIAIQETKRRRAIQEEYNRKHGIVPRTVKKEIRDVIRATYAAEETEMYEAKPAAAMTKQEREELIRTLEAEMKEAAKALDFERAAQLRDIIFELKAEG | soluble
14 | MGKTIAEKIFASHLVDEPFAGTKVLRLDVVMCHEITTPIAIADLMARGKDRVFDPTKIKAVIDHVTPSKDSKTATQAKMLRDWARRHGIVDFFDVGANGVCHALFPEKGFIRPGYTVIMGDSHTCTHGAFGAFAAGIGTTDLEVGILKGVCAFREPKT | not soluble
15 | MGSSHHHHHHSSGRENLYFQGEYDYTDFINYYDKFKVIVYNVLKKLPLNDEIRKPVIEYYLNCIDYNVKKGKHIRGKILVLISSLSSAYSNIKRDSIYLLGWVVEAIQALILIADDIMDSGKFRRGAPCWYIVHGQSNAINDIFFLKMLSLSLIFELSSVFGNDIVMKIQKIYNESIFFTVLGQHLDLSYFDLSKADKISERYFSMVEMKTSRYTFYMPVFFGLTLSEIQVSSAQLNLIEAILYKLGEFYQVHNDVSDYLFNDSNADDICRFKLTWPLQKSFEIADEEMKLKISENYGKNSSLVKDCYNLLKINEHYLEYQRNALDYLIKLVKDITDDSLQKVFIHLIHQISELITNSRSNADSNNSL | soluble
16 | AMAELKEFLNKPAATSDVPPAPAGFDFDAAKKLVDVRCNKCHTLDSVADLFRTKYKKTGQVNLIVKRMQGFPGSGISDDDAKTIGIWLHEKF | soluble
17 | MASIMYTPKDIFEQEFKSSMRGYDKKEVDEFLDDIIKDYETYISTIEELRQENTRLKEEVKQAKKRQEAAQTTVSPAASVSSSRVATTATNFDILKRISRLEKEVFGKQITE | not soluble
18 | MGSDKIHHHHHHMKTELVQVETEDSIVLHGAFYEAEQGKPAIIIMHGAAMNFYTGLGRFLPEILSEHGFSCLSANNRGHDFGTAPDHDRKPVIGLMRDIFKDCVKDVQALLHFLRSRGYPRVILLGHSQAIPKLLYAQNQLQFPEVQGMILVSPPPSVSKMMRYLTTDNYYERGLFKANELGEMGMYDQLIVLRGRGTMPWIFTVSTFLDFYGPNTPADTEELVKEIYCPMLLIRGSMDFPPVSMELMHNMKQNAAVPESVTIREINEASHFYSGQEKQLGNTILEWLDSY | not soluble
